These results are taken from patent US20180346889, “DNA POLYMERASE VARIANT” (KYUSHU UNIVERSITY, NATIONAL UNIVERSITY CORPORATION, published 2018).

Data set [1] deals with T1, Taq58 (TaqLF P685S Y686R E687K) (Thermus aquaticus, UniProt P19821 SEQ:1-544).
T1 chain: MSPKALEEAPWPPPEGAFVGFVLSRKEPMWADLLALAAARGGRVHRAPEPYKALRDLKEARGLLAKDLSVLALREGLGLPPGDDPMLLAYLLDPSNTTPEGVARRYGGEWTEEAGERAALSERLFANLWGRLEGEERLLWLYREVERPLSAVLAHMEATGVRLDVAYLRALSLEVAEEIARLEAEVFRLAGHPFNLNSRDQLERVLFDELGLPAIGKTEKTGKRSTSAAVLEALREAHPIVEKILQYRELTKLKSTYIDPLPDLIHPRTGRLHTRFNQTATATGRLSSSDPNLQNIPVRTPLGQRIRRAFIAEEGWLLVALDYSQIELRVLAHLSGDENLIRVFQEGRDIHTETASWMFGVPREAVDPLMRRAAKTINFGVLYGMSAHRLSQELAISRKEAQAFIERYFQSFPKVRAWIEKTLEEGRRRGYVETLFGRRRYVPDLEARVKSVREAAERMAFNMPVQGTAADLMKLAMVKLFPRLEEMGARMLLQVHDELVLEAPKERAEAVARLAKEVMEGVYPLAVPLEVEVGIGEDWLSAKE
Description: EMSA; apparent; shifted band from 25 nM; 20 mM Tris-HCl pH 8.8, 10 mM NaCl, 5 mM MgCl2, 40 C. The note with it: label: 5'-32P on d27; primer-template, 27 bp duplex with 22 nt 5' overhang on 49N. Here is the method:
(§1) The affinity of variant Taq polymerases and primed DNAs was examined using a gel shift assay. The measurement was carried out in the following manner.
(§2) First, DNA in which a 27 nt of a single-stranded DNA (d27, SEQ ID NO: 50) radioactive-labeled with ³²P at 5′-terminal was annealed to a non-labeled 49 nt of a single-stranded DNA (49N, SEQ ID NO: 51) was used as a substrate DNA for the measurement of DNA binding ability. DNA polymerase proteins were added to 10 μl of Solution E [20 mM Tris-HCl, pH 8.8, 10 mM NaCl, 5 mM MgCl₂, 14 mM 2-mercaptoethanol, 0.1 mg/ml BSA and 5% (v/v) glycerol] containing 2 nM substrate DNA so as to have concentration of from 0.6 to 400 nM, and the mixture was held at 40° C. for 5 minutes. A liquid DNA-enzyme mixture was subjected to 1% agarose gel and electrophoresed in a 0.1×TAE solution [4 mM Tris base, 2 mM acetic acid and 0.1 mM EDTA]. After the termination of electrophoresis, the gel was dried, and the dried gel was exposed to an imaging plate. Typhoon TRIO+ was used to detect a labeled DNA.
Background: In EMSA bound probe runs differently from free probe, usually more slowly.

In data set [2] the target is T2, Taq59 (TaqLF P685R Y686R E687R) (Thermus aquaticus, UniProt P19821 SEQ:1-544).
T2 chain: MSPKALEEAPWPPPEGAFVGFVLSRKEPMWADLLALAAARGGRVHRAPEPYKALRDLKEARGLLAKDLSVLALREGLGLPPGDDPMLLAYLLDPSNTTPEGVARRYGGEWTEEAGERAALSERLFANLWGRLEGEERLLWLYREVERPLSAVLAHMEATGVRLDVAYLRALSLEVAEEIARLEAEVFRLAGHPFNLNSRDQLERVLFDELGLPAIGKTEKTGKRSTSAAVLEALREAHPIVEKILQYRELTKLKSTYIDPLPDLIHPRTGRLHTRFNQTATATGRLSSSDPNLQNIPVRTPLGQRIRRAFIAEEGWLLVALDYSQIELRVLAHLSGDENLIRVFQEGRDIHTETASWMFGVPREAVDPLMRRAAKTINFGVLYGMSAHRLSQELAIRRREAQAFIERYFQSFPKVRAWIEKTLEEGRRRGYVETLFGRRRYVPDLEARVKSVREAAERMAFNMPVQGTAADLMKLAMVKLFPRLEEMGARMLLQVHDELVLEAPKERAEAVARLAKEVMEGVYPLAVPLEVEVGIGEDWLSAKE
Description: EMSA; apparent; clear shift at 25 nM, two-step shift at 400 nM; 20 mM Tris-HCl pH 8.8, 10 mM NaCl, 5 mM MgCl2, 40 C. The note with it: label: 5'-32P on d27; primer-template, 27 bp duplex with 22 nt 5' overhang on 49N. Here is the method: as §1, §2

B1: primed DNA d27/49N (dsDNA)
DNA 1: AGCTATGACCATGATTACGAATTGCTT
DNA 2: AGCTACCATGCCTGCACGAATTAAGCAATTCGTAATCATGGTCATAGCT
Take B1: the Kd is 100 nM in data set [1] and 40 nM in data set [2].
